For orientation: stoichiometry N means the number of molecules, sites or subunits per partner or assembly.

Assay [1] deals with SsgB of S. coelicolor, wild type, His6-tagged (Streptomyces coelicolor) (UniProt Q9L268). The assay is described as follows: crystal structure.
The target is the same in assay [2]. The assay is described as follows: SEC.
In assay [3] the target is T1, FtsZ of S. coelicolor, C-terminal His-tag fusion (Streptomyces coelicolor, UniProt P45500 1-399).
T1 sequence (looked up): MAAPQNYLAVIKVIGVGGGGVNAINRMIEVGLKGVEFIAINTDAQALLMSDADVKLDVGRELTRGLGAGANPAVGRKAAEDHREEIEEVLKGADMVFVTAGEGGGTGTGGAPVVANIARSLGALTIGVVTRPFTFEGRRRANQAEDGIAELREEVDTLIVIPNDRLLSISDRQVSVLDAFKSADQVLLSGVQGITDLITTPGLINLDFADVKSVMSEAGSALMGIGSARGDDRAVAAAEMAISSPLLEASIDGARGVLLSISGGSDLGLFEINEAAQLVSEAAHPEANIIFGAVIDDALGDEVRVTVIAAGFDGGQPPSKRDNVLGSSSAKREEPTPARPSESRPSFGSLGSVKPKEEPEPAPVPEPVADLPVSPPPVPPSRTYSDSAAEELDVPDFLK
The assay is described as follows: co-sedimentation.

“SsgB of S. coelicolor, wild type, His6-tagged (from UniProt Q9L268 1-137) (natural protein)”: the stoichiometry N in assay [1] and in assay [2] was 3 each time.

B1: SsgB of S. coelicolor, wild type, His6-tagged (natural protein, Streptomyces coelicolor, UniProt Q9L268 1-137, looked up)
chain: MNTTVSCELHLRLVVSSESSLPVPAGLRYDTADPYAVHATFHTGAEETVEWVFARDLLAEGLHRPTGTGDVRVWPSRSHGQGVVCIALSSPEGEALLEAPARALESFLKRTDAAVPPGTEHRHFDLDQELSHILAES
B1: in assay [3], the binding result is reported as “binds”.

B2: SsgB E120A of S. coelicolor, His6-tagged (natural protein, Streptomyces coelicolor, UniProt Q9L268 1-137, looked up)
chain: MNTTVSCELHLRLVVSSESSLPVPAGLRYDTADPYAVHATFHTGAEETVEWVFARDLLAEGLHRPTGTGDVRVWPSRSHGQGVVCIALSSPEGEALLEAPARALESFLKRTDAAVPPGTAHRHFDLDQELSHILAES
For B2, the binding result in assay [3] is recorded as “binds”.

B3: SsgB E120G of S. coelicolor, His6-tagged (natural protein, Streptomyces coelicolor, UniProt Q9L268 1-137, looked up)
chain: MNTTVSCELHLRLVVSSESSLPVPAGLRYDTADPYAVHATFHTGAEETVEWVFARDLLAEGLHRPTGTGDVRVWPSRSHGQGVVCIALSSPEGEALLEAPARALESFLKRTDAAVPPGTGHRHFDLDQELSHILAES
As to B3, the binding result in assay [3] is reported as “binds”.

These data come from publication doi:10.1101/860916 (bioRxiv, 2019).
